Results on 7 molecules are retold here after publication PMC3855848 (Chemistry & biology, 2013).

The target of data set [1] is actKR (actinorhodin type II polyketide ketoreductase) (Streptomyces coelicolor, UniProt P16544, R177A). Nature of the data set: NADPH fluorescence titration. Format: binding.
In data set [2] the target is actKR (actinorhodin type II polyketide ketoreductase) (Streptomyces coelicolor, UniProt P16544). Nature of the data set: NADPH fluorescence titration. The format is binding.
Data set [3] addresses actKR (actinorhodin type II polyketide ketoreductase) (Streptomyces coelicolor, UniProt P16544, R220A). Nature of the data set: NADPH fluorescence titration. The format is binding.
Data set [4] deals with actKR (actinorhodin type II polyketide ketoreductase) (Streptomyces coelicolor, UniProt P16544, R93A). Nature of the data set: NADPH fluorescence titration. Format: binding.
actKR (actinorhodin type II polyketide ketoreductase) (Streptomyces coelicolor, UniProt P16544, R93A), sequence (P16544 whole entry R93A): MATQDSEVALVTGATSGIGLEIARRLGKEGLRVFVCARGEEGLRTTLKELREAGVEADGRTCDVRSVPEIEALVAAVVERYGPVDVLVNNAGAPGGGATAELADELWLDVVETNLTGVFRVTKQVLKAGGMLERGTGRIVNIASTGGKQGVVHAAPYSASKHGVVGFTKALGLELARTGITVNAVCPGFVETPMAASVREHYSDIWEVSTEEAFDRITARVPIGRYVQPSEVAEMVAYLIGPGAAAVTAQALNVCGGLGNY
In data set [5] the target is actKR (actinorhodin type II polyketide ketoreductase) (Streptomyces coelicolor, UniProt P16544, R38A). Nature of the data set: NADPH fluorescence titration. Format: binding.
actKR (actinorhodin type II polyketide ketoreductase) (Streptomyces coelicolor, UniProt P16544, R38A), sequence (P16544 whole entry R38A): as the sequence (P16544 whole entry R93A) above, with R38A, A93R counted along it
The target in data set [6] is actKR (actinorhodin type II polyketide ketoreductase) (Streptomyces coelicolor, UniProt P16544, R65A). Put plainly: NADPH fluorescence titration. Format: binding.
actKR (actinorhodin type II polyketide ketoreductase) (Streptomyces coelicolor, UniProt P16544, R65A), sequence (P16544 whole entry R65A): as the sequence (P16544 whole entry R93A) above, with R65A, A93R counted along it
Substrate in data set [7]: O=C1CCC[C@H]2CCCC[C@H]12
Nature of the data set: purified protein. Particulars: co-substrate NADPH. The format is biochemical, Streptomyces coelicolor.

actKR (actinorhodin type II polyketide ketoreductase) (Streptomyces coelicolor, UniProt P16544, R177A), sequence (P16544 whole entry R177A): as the sequence (P16544 whole entry R93A) above, with A93R, R177A counted along it
actKR (actinorhodin type II polyketide ketoreductase) (Streptomyces coelicolor, UniProt P16544, R220A), sequence (P16544 whole entry R220A): as the sequence (P16544 whole entry R93A) above, with A93R, R220A counted along it

As for `NC(=O)C1=CN([C@@H]2O[C@H](COP(=O)(O)OP(=O)(O)OC[C@H]3O[C@@H](n4cnc5c(N)ncnc54)[C@H](OP(=O)(O)O)[C@@H]3O)[C@@H](O)[C@H]2O)C=CC1` [NADPH], the Kd (commonly the constant that tells how readily two partners part at equilibrium) in data set [1] came out at 1170 ± 100 nM; in data set [2] it was 1520 ± 90 nM; in data set [3], 1990 ± 160 nM; in data set [4], 6430 ± 680 nM; in data set [5] it was 4300 ± 400 nM; in data set [6] it was 1830 ± 210 nM.

B1: actKR (actinorhodin type II polyketide ketoreductase) (Streptomyces coelicolor A3(2); F189A) (protein)
chain: MATQDSEVALVTGATSGIGLEIARRLGKEGLRVFVCARGEEGLRTTLKELREAGVEADGRTCDVRSVPEIEALVAAVVERYGPVDVLVNNAGRPGGGATAELADELWLDVVETNLTGVFRVTKQVLKAGGMLERGTGRIVNIASTGGKQGVVHAAPYSASKHGVVGFTKALGLELARTGITVNAVCPGAVETPMAASVREHYSDIWEVSTEEAFDRITARVPIGRYVQPSEVAEMVAYLIGPGAAAVTAQALNVCGGLGNY
Take B1: in data set [7], the Km (as a rule, the substrate concentration at which the rate is half of its maximum) came out at 8630 ± 2010 µM; the kcat (commonly the number of substrate molecules converted per active site and unit of time at saturation) came to 0.049 ± 0.005 s⁻¹; the kcat/Km (in general, the second-order rate constant that governs catalysis at low substrate concentration) amounted to 5.7 ± 1.5 M⁻¹ s⁻¹.

B2: actKR (actinorhodin type II polyketide ketoreductase) (Streptomyces coelicolor A3(2)) (protein)
chain: MATQDSEVALVTGATSGIGLEIARRLGKEGLRVFVCARGEEGLRTTLKELREAGVEADGRTCDVRSVPEIEALVAAVVERYGPVDVLVNNAGRPGGGATAELADELWLDVVETNLTGVFRVTKQVLKAGGMLERGTGRIVNIASTGGKQGVVHAAPYSASKHGVVGFTKALGLELARTGITVNAVCPGFVETPMAASVREHYSDIWEVSTEEAFDRITARVPIGRYVQPSEVAEMVAYLIGPGAAAVTAQALNVCGGLGNY
As for B2, in data set [7], the Km was 760 ± 90 µM, the kcat amounted to 2.55 ± 0.12 s⁻¹ and the kcat/Km worked out at 3230 ± 320 M⁻¹ s⁻¹.

B3: actKR (actinorhodin type II polyketide ketoreductase) (Streptomyces coelicolor A3(2); D109R) (protein)
chain: MATQDSEVALVTGATSGIGLEIARRLGKEGLRVFVCARGEEGLRTTLKELREAGVEADGRTCDVRSVPEIEALVAAVVERYGPVDVLVNNAGRPGGGATAELADELWLRVVETNLTGVFRVTKQVLKAGGMLERGTGRIVNIASTGGKQGVVHAAPYSASKHGVVGFTKALGLELARTGITVNAVCPGFVETPMAASVREHYSDIWEVSTEEAFDRITARVPIGRYVQPSEVAEMVAYLIGPGAAAVTAQALNVCGGLGNY
On to B3, for which, in data set [7], the Km came out at 1250 ± 400 µM, the kcat amounted to 0.078 ± 0.01 s⁻¹ and the kcat/Km worked out at 62 ± 21 M⁻¹ s⁻¹.

B4: actKR (actinorhodin type II polyketide ketoreductase) (Streptomyces coelicolor A3(2); M194W) (protein)
chain: MATQDSEVALVTGATSGIGLEIARRLGKEGLRVFVCARGEEGLRTTLKELREAGVEADGRTCDVRSVPEIEALVAAVVERYGPVDVLVNNAGRPGGGATAELADELWLDVVETNLTGVFRVTKQVLKAGGMLERGTGRIVNIASTGGKQGVVHAAPYSASKHGVVGFTKALGLELARTGITVNAVCPGFVETPWAASVREHYSDIWEVSTEEAFDRITARVPIGRYVQPSEVAEMVAYLIGPGAAAVTAQALNVCGGLGNY
Turning to B4, in data set [7], the Km stood at 3220 ± 650 µM, the kcat was found to be 0.43 ± 0.06 s⁻¹ and the kcat/Km worked out at 130 ± 30 M⁻¹ s⁻¹.

B5: actKR (actinorhodin type II polyketide ketoreductase) (Streptomyces coelicolor A3(2); V198A) (protein)
chain: MATQDSEVALVTGATSGIGLEIARRLGKEGLRVFVCARGEEGLRTTLKELREAGVEADGRTCDVRSVPEIEALVAAVVERYGPVDVLVNNAGRPGGGATAELADELWLDVVETNLTGVFRVTKQVLKAGGMLERGTGRIVNIASTGGKQGVVHAAPYSASKHGVVGFTKALGLELARTGITVNAVCPGFVETPMAASAREHYSDIWEVSTEEAFDRITARVPIGRYVQPSEVAEMVAYLIGPGAAAVTAQALNVCGGLGNY
As to B5, in data set [7], the Km is 15500 ± 1490 µM, the kcat stood at 0.24 ± 0.01 s⁻¹ and the kcat/Km turned out to be 16 ± 2 M⁻¹ s⁻¹.

B6: actKR (actinorhodin type II polyketide ketoreductase) (Streptomyces coelicolor A3(2); T145A) (protein)
chain: MATQDSEVALVTGATSGIGLEIARRLGKEGLRVFVCARGEEGLRTTLKELREAGVEADGRTCDVRSVPEIEALVAAVVERYGPVDVLVNNAGRPGGGATAELADELWLDVVETNLTGVFRVTKQVLKAGGMLERGTGRIVNIASAGGKQGVVHAAPYSASKHGVVGFTKALGLELARTGITVNAVCPGFVETPMAASVREHYSDIWEVSTEEAFDRITARVPIGRYVQPSEVAEMVAYLIGPGAAAVTAQALNVCGGLGNY
As to B6, in data set [7], the Km amounted to 420 ± 60 µM, the kcat stood at 0.18 ± 0.008 s⁻¹ and the kcat/Km was 420 ± 60 M⁻¹ s⁻¹.
